Data on seven molecules can be found in paper PMC5355875, “Crystal structure of a raw-starch-degrading bacterial α-amylase belonging to subfamily 37 of the glycoside hydrolase family GH13” (Scientific Reports, 2017).

Data set [1] concerns T1, OC[C@H]1O[C@@H]2O[C@H]3[C@H](O)[C@@H](O)[C@@H](O[C@H]4[C@H](O)[C@@H](O)[C@@H](O[C@H]5[C@H](O)[C@@H](O)[C@@H](O[C@H]6[C@H](O)[C@@H](O)[C@@H](O[C@H]7[C@H](O)[C@@H](O)[C@@H](O[C@H]8[C@H](O)[C@@H](O)[C@@H](O[C@H]9[C@H](O)[C@@H](O)[C@@H](O[C@H]1[C@H](O)[C@H]2O)O[C@@H]9CO)O[C@@H]8CO)O[C@@H]7CO)O[C@@H]6CO)O[C@@H]5CO)O[C@@H]4CO)O[C@@H]3CO.
T1 construct: SBD-truncated catalytic domain, residues 1-496, N-terminal 6xHis (TEV site)
As to the kind of experiment: reducing sugar assay (copper-bicinchoninate), Michaelis-Menten fit. It is filed as biochemical, uncultured bacterium. The conditions noted are these: 40 °C, pH 6.5, 20 mM HEPES, 150 mM NaCl, 10 mM CaCl2. From the text: (§1) reducing sugar assay (copper-bicinchoninate), Michaelis-Menten fit on AmyPΔSBD

Data set [2] has as its target T2, AmyP (uncultured bacterium, UniProt D9MZ14).
T2 construct: gene Amy-1E; full-length residues 1-639 crystallised, 6xHis tag cut by TEV, E. coli BL21(DE3); only residues 1-496 (AmyPΔSBD) seen in crystals, SBD partly degraded
The data set is described as follows: X-ray crystal structure, […] Å. To be noted: co-crystallised with β-CD, pH 8.5; active site, subsites -2 and -3. The class given is binding.

For data set [3], the target named is T3, AmyP (uncultured bacterium, UniProt D9MZ14, E221Q).
T3 construct: gene Amy-1E; full-length residues 1-639 crystallised, 6xHis tag cut by TEV, E. coli BL21(DE3); only residues 1-496 (AmyPΔSBD) seen in crystals, SBD partly degraded
The data set is described as follows: X-ray crystal structure, […] Å. It is filed as binding. The conditions noted are these: co-crystallised with γ-CD, pH 6.0; active site, subsites -1, -2 and -3.

Substrate in data set [4]: OC[C@H]1O[C@@H]2O[C@H]3[C@H](O)[C@@H](O)[C@@H](O[C@H]4[C@H](O)[C@@H](O)[C@@H](O[C@H]5[C@H](O)[C@@H](O)[C@@H](O[C@H]6[C@H](O)[C@@H](O)[C@@H](O[C@H]7[C@H](O)[C@@H](O)[C@@H](O[C@H]8[C@H](O)[C@@H](O)[C@@H](O[C@H]9[C@H](O)[C@@H](O)[C@@H](O[C@H]1[C@H](O)[C@H]2O)O[C@@H]9CO)O[C@@H]8CO)O[C@@H]7CO)O[C@@H]6CO)O[C@@H]5CO)O[C@@H]4CO)O[C@@H]3CO
As to the kind of experiment: reducing sugar assay (copper-bicinchoninate), Michaelis-Menten fit. The class given is biochemical, uncultured bacterium. The conditions noted are these: 40 °C, pH 6.5, 20 mM HEPES, 150 mM NaCl, 10 mM CaCl2.
Source text: as §1

For orientation: Km means the concentration of substrate that gives half-maximal velocity. The kcat is the maximal rate divided by the concentration of active sites. In general, kcat/Km refers to the turnover number divided by the Michaelis constant. Regarding AmyPΔSBD (uncultured bacterium; K131A), in data set [1], the Km amounted to 1.29 ± 0.13 mM, the kcat worked out at 7.47 ± 0.004 s⁻¹ and the kcat/Km amounted to 5800 M⁻¹ s⁻¹.

Turning to AmyPΔSBD (uncultured bacterium; N148A), in data set [1], the Km came out at 0.20 ± 0.03 mM, the kcat amounted to 22.59 ± 0.007 s⁻¹ and the kcat/Km came out at 113000 M⁻¹ s⁻¹.

On to `OC[C@H]1O[C@H](O[C@H]2[C@H](O)[C@@H](O)C(O)O[C@@H]2CO)[C@H](O)[C@@H](O)[C@@H]1O` (some centres unmarked) [maltose], for which the “X-ray crystal structure, 1.95 Å” value on AmyP [2] is “electron density representing a maltose molecule at subsites -2 and -3”.

Consider `OC[C@H]1O[C@H](O[C@H]2[C@H](O)[C@@H](O)[C@@H](O[C@H]3[C@H](O)[C@@H](O)C(O)O[C@@H]3CO)O[C@@H]2CO)[C@H](O)[C@@H](O)[C@@H]1O` (some centres unmarked) [maltotriose], for which, at AmyP [3], the “X-ray crystal structure, 2.55 Å” value is listed as “electron density representing a maltotriose molecule bound to the active site”.

B1: AmyPΔSBD (uncultured bacterium) (protein)
chain: MCDSALTAQANDLRIYQVMVESFVNGDDAIGHGTGYGTSHHKGDLQGIIDSLDYIESLGMNAIWLTPIFDSIPVEGQDHWADRLDATGYFTSNYFAVDPRFGTMEQAKELVEKAHEKGLYVFFDGVFGHHKDNVVPSPEGRLPVGENNPVSYPESLAFYQEVATFWIEELKIDGWRLDQAYQVPTEAWTAIRASVDEASKSVTYVNSEGEAVNPLGYMVAEIWNNENYIKETGYGAEGEPALCSAFDFPVRYRVVETFAANENGIGNKGGKWLDEGMNLHRLYPSHAQPNLMLGNHDLVRFGDLLQRGNIASPEQAEYWERHKAALSFQAAYSGPITLYYGEEIGDELEGYAQKVEQDCAVQGLCDDHVARTSANIDGLTVNLNEKQRDLKQYVSQLMTLRAAHPALSRGERTNIVANETVYIDHKQADDDALIYMVSTTADQDTVELKASDIASDGQLVDLLTGKVHSAINGEYQISLAPFEAKFLLIETPSASG
notes: SBD-truncated catalytic domain, residues 1-496, N-terminal 6xHis (TEV site)
For B1, in data set [4], the Km came out at 0.12 ± 0.005 mM, the kcat stood at 39.58 ± 0.004 s⁻¹ and the kcat/Km was 323000 M⁻¹ s⁻¹.

B2: AmyPΔSBD (uncultured bacterium; N148Y) (protein)
chain: MCDSALTAQANDLRIYQVMVESFVNGDDAIGHGTGYGTSHHKGDLQGIIDSLDYIESLGMNAIWLTPIFDSIPVEGQDHWADRLDATGYFTSNYFAVDPRFGTMEQAKELVEKAHEKGLYVFFDGVFGHHKDNVVPSPEGRLPVGENYPVSYPESLAFYQEVATFWIEELKIDGWRLDQAYQVPTEAWTAIRASVDEASKSVTYVNSEGEAVNPLGYMVAEIWNNENYIKETGYGAEGEPALCSAFDFPVRYRVVETFAANENGIGNKGGKWLDEGMNLHRLYPSHAQPNLMLGNHDLVRFGDLLQRGNIASPEQAEYWERHKAALSFQAAYSGPITLYYGEEIGDELEGYAQKVEQDCAVQGLCDDHVARTSANIDGLTVNLNEKQRDLKQYVSQLMTLRAAHPALSRGERTNIVANETVYIDHKQADDDALIYMVSTTADQDTVELKASDIASDGQLVDLLTGKVHSAINGEYQISLAPFEAKFLLIETPSASG
notes: as for B1
As to B2, in data set [4], the Km was 0.10 ± 0.009 mM, the kcat turned out to be 26.11 ± 0.01 s⁻¹ and the kcat/Km was found to be 274000 M⁻¹ s⁻¹.

B3: AmyPΔSBD (uncultured bacterium; Y351A) (protein)
chain: MCDSALTAQANDLRIYQVMVESFVNGDDAIGHGTGYGTSHHKGDLQGIIDSLDYIESLGMNAIWLTPIFDSIPVEGQDHWADRLDATGYFTSNYFAVDPRFGTMEQAKELVEKAHEKGLYVFFDGVFGHHKDNVVPSPEGRLPVGENNPVSYPESLAFYQEVATFWIEELKIDGWRLDQAYQVPTEAWTAIRASVDEASKSVTYVNSEGEAVNPLGYMVAEIWNNENYIKETGYGAEGEPALCSAFDFPVRYRVVETFAANENGIGNKGGKWLDEGMNLHRLYPSHAQPNLMLGNHDLVRFGDLLQRGNIASPEQAEYWERHKAALSFQAAYSGPITLYYGEEIGDELEGAAQKVEQDCAVQGLCDDHVARTSANIDGLTVNLNEKQRDLKQYVSQLMTLRAAHPALSRGERTNIVANETVYIDHKQADDDALIYMVSTTADQDTVELKASDIASDGQLVDLLTGKVHSAINGEYQISLAPFEAKFLLIETPSASG
notes: as for B1
For B3, in data set [4], the Michaelis constant (Km) amounted to 2.11 ± 0.09 mM, the kcat amounted to 25.02 ± 0.006 s⁻¹ and the kcat/Km amounted to 11900 M⁻¹ s⁻¹.
